Test results: the domain aggregation screens of Martell et al. (2025)

Test: soluble fraction after stress (log2 fold change); higher = more stays soluble; pooled small domains, quantitative proteomics
Settings: stress: pH 4
Procedure, shortened: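 High-throughput quantitative proteomics was run on pooled custom libraries of small protein domains following pH 4 stress. Fold changes are on a log2 scale; higher values mean more of a domain remained soluble. The fold change in soluble amount is taken as a measure of aggregation propensity.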

Point of comparison: “HMEKELVSDFASRISTARSSKGWNHAELGKRMAETVNVIKSAESGKPPTDSVVKKLERVLGITLMEV”, “soluble fraction (log2)” value -0.218. Against it:
- HMGNVRSWKGWTSAGGTRVQMRQGDSINSMARRYGVPIQAIVAVNGIDDPAKVQPGQSVIIPTYVY — higher, 0.118
- HMKTGIGIVEANGGLRLRSQASTSSDVLSTAHNGDNVVVIRQVGNWYLVNYNLKIGYMHSDYITFKE — lower, -1.3
- HMNMANFARIRLILELHDRGMSQDEISRSRHMSRSTITTVLRTARKKGITYAGIRKLDDAALQKLFFPDR — higher, 0.22
- HMKDLSMPDVMGSSLNDAKKALTELGIMDITVRYVESGSSEGSIVGMEPPAGSKFAADGKVVLQVSSGS — higher, 0.0083
- HMSLTPSQDANRSAILDAARDLFARYGFKKTTMEDIAMALRKGKSSLYYYFKNKEDIFQAVIDS — within 0.2 log units, -0.0869
- HMGWEPTPVLVAARDISGGTVLDQDMLRVEAIPSRLVTPSIVRSDLLASVQDAKLLLPMKQGDLLNFNMLQ — lower, -0.49
- HMLDTELEANLRSQRDQKLVEELDPIVTNPLRWAELTSDKQTEWTQYRTDLLNVPQQSGFPTNVTWPEKP — within 0.2 log units, -0.401
- HMGVSVNVQPAILDWAMQKAQMGNAGSSVIEMIAKWISGEKAPTFNQIEDVSKKISIPFGFFFLKEPPIE — lower, -1.21
- HMTPSTVQVHVAGAVKNPGVYVLLENARNIDAITAAGGATSEADLERINLSEFIRDGQRVYVPYKGDPI — higher, 0.0384
- HMSRWHEFLNKSEDGMKELDEQNQKVLTLLILQRFYQTPFQAKEDEEFYREFFERLSSVNEILG — within 0.2 log units, -0.283
- HMTDSQLVEAENHVALRQAMAHLGPRERELIGLYYFEEQSQTQIAARFGVSQMQVSRWLTSAVGRIRGQMA — higher, 0.131
- HMSIGLEGFVGKLGISTSDLRPSGWGEFDAKKLFVVTEGEFVDRKEKIEILSVDGNRILVRKIS — lower, -0.471
- HMSENKIMEIVQDLAREKSVILISHRLANVTAADKILYMEQGKIAESGTHEQLMAQNKAYAALFNKQQEL — within 0.2 log units, -0.0418
- HMSETIVFGQQKAINTLSSEAGLSSAELNNYLKKRYQRPLFQLTVSEGADLIQGFQDGTLTKASITQYVSQ — higher, 0.22
- HMILEEIIGKNIARYREAAGLTQATLAEKIGISTAFVSRVERGQKKMKVETLYATAKVLNVSVDALLS — higher, 0.0651
- HMGLSIPLMGAKASDIEISTLNDEVQRKLKIIVKEQGHENLQRVVPLPSEAREIQAHFINGRLHLR — higher, 0.214
- HMDDPWHNLANAIVAVAADDYRSALRNEDEGLLKSLELFFHSEWYRILTDVDADRLLGMLRRERS — lower, -1.14
- HMKNEVENLSYMINRIIEYRDLNNLSNKNLANKIGISEALLSYILNGRRKLSKEIQRKIALFLLND — within 0.2 log units, -0.337
- HMAPQAETLLRQVMALPSKDRAVLYLHYYEGFSTREVGDMLHISQSAVTTRLLRARKKLKEIL — lower, -0.754
- HMDMQNIQKGLSAIEPGRTFSREEYYAAIQNGSEMLLKEDALAYSLRKSLSDGDIVRVSWNQYAIP — lower, -0.909
- HMGIIVDMSKIKQMLQLSEAGHSNRKIALELGINKETVNNYMQLIRNGRLDIRQLLKMDDPELERRFHA — higher, 0.23
- HMKSLVDLEISIVKKDMNYFVLPKINGEPLLMERISASEYKDFQLGKLSKEDIFQKHYPDYSEENIKNGRG — higher, 0.19
- HMEPDDLTVIKGIGPVAAKDLNEQGIITFAQLAKLSDKDVAKIDEHMPFSADQIKDWREQAKELAK — higher, 0.0725
- HMTRILTEDDIVNFLIRQPDTAYIIAKSFNENERKVKELLDLLIKKNKVREEIVNGVVSYAVN — within 0.2 log units, -0.208
- HMITMWYYKKDGNIIGPASARKIASMRELGIITDSTPVSRKRNAKNWETFGGLSEKINLESSQWD — higher, 0.0852
- HMKPSISKIYALWGVLQRSGKIKSQDKAALDAFVRKYTGVDHVKWLDESQARKIIEILKQMIA — higher, 0.104
- HMFDITKEVLKQSGLYNLYKNDESLEGINRIQNIEELLNGIKDFVENNEKSQASVSSFLQDVALATDQ — within 0.2 log units, -0.217
- HMKKITTANPLDINRATLAQLDTLPGIGPVTAERIIAYRSKVGRINSLDELKKISGLGGMKFEEIKPLLRV — within 0.2 log units, -0.126
- HMKPFSLESYKAFVVKRLGLFPETSSAQMHDWLKEEYPDFPLITPRTVYNFVMKIRQDYGIAKV — lower, -0.732
- HMGLGQRIKARREALGLSQARLGEAVGVSLQAVSNWERDEYLPDTARLPLIARALGLTPGQLME — higher, 0.11
- HMEAKTSNPDYHARLGLTEGEGNDSALGVSVKAAEGGFGLLFGNKVGSDQLVRFANEDQVWLVNRALS — higher, 0.0693
- HMGDLTVPDLSGLTVDQAKQRLKDMGLVLGKITTQEDSSKPDGVIISQSPSADGKINKGQLVDVVVNKLS — higher, 0.206
- HMTLGENLQNLRKEAGLSQEQVAQQLFVSRQTVSKWENNLAEPGVENLKALARLYGVTLDRLVGM — within 0.2 log units, -0.323
- HMSYGKVQFVIDAKDAVLSIDGKETDYEKPVKLTYGSHTITVYSSDYDTWKRNLYVNSEKSTVVINLA — higher, -0.0156
- HMSPAETGIYHILVENGKPNRHGLDATNKNENWLRQFLITQNTRLEDVFLLLADDGGGIRFFKSQ — lower, -0.658
- HMSSGKTGTITLQPKQTVYGITKQYKISEADLRKLNPQLDSNLKIGDKITLPLDNIQRYSDSSSNVAQT — higher, 0.22
- HMEAGLRMPEQLTAFSALALLQKVRDSGPLTDAQKEQLDADVLRIEASHFGKADREALELEEILKQWLSRV — lower, -0.889
- HMTSEPFYNPRRPQPYWTSETDRHTTYADAVRALAREFSETPEWVESNMGETNDLQEIRRNLSRVKSG — within 0.2 log units, -0.108
- HMSDDLIILGYSMLNNALKAFHIDPDSIKKKHWDKLAQDYHLKNKNQILTDIALGKRVNIMVAHQLTTIMD — lower, -1.32
- HMLFVKLSDAQRSMFGAKLARDARIQSEYAQKLPSENYEVFGKALADMLLDETHFKTFYPLLVEYGYTQPK — lower, -0.649
- HMKTRIQDLRKELGVTQSELADAVDVTRQTIISLEGGRYKASLVLAHKLAQFFHVTIEELFIFD — lower, -0.918
- HMDEDTWKLYKRAYKKYYARYMKGNMSEAAFKAWGEQAAADRDAAIEQLRATTDAALSASIIQQLKEKLNR — higher, 0.22
- HMDNIKRGEMFYISRGGASYSGSEQHSDRPAVVVSNDKNNENSNVVEVVYMTTQPKTDLPTHVTVR — within 0.2 log units, -0.0773
- HMEPDTVVVPNFVGKVYASEIEGNEAYSDFTFVIKEGNDPEQDIGVVLKQTPNEGLEVKKGKEITLTINQ — within 0.2 log units, -0.169
- HMYVTGSAIRRLREKRKLTQAQLAAALSVSDKTVSKWETARGLPDITLLEPLARALQVSVPELLSGEEV — within 0.2 log units, -0.0388
- HMSELLIVGSEQDNTRLDRFLADQYEEYTRSFLQKLIDQGNVSINGISVKKSGIKLKENDEIAVTLPEPQ — lower, -0.588
- HMYKTKVDIAYDMLMERITEGVYKPGEKLVITHISKELGISDIPVREAIRRLESEGYVKILPNQGAIVYD — within 0.2 log units, -0.185
- HMDSESGAIIRRAVAQLAPKFRSTIVLRLIEGYSTEETAQILQLPVGTVLSRLARAKVQLMNLLTPYKEL — within 0.2 log units, -0.0277
- HMDLKHNQITMRELLRNKQAYLLLYKEFPMFMTPAILQNIRPLTLQQIIQMVRPYISRPKLNMLLEQLENI — higher, 0.22
- HMKSFIWKQYTVQITKKNVKNTNVRIKRDNPHVILMSIPYSATYKAGLLALETPHIRHWLDNYERKLKQ — higher, 0.0309
- HMPKHDWDAFAGAIARRVHDHGMPVSQGELVRDMMDWFAGRKDFPPPDERTVRRKVSAIWRELNG — within 0.2 log units, -0.292
- HMPEQLLNTRIPLEFAGRRFDASLAELFPDYSRSRLAAWIKDGAARLDGETVAPRHTVRGGEQVEILVRM — within 0.2 log units, -0.13
- HMSGPSDRDLFDEALALLSGSGREPDYHEARIRLGTLVEQFPESKWAEGAKALLSMLDRVSALQV — lower, -0.673
- HMSEKLTLEAANEAAGMRIDKWLAMQLPELSRSRIEALISGGGVVVNGKNPSKSLKLKGGEQIELEIPE — higher, 0.108
